Reference: patent US20220146501A1

Key:
[1] = molecular target: anti-C-reactive protein antibody (MAB-1); assay: TR-FRET competition; labeled anti-CRP MAB-1 with labeled CRP as tracer; unlabeled CRP calibrator at 118.7 mg/L
[2] = molecular target: anti-C-reactive protein antibody (MAB-1); assay: TR-FRET competition; labeled anti-CRP MAB-1 with labeled CRP as tracer; unlabeled CRP calibrator at 60.5 mg/L
[3] = molecular target: anti-C-reactive protein antibody (MAB-1); assay: TR-FRET competition, acceptor emission; unlabeled CRP calibrator at 8.1 mg/L
[4] = molecular target: anti-C-reactive protein antibody (MAB-1); assay: TR-FRET competition, acceptor emission; unlabeled CRP calibrator at 2.9 mg/L
[5] = molecular target: anti-C-reactive protein antibody (MAB-1); assay: TR-FRET competition; labeled anti-CRP MAB-1 with labeled CRP as tracer; unlabeled CRP calibrator at 8.1 mg/L
[6] = molecular target: anti-C-reactive protein antibody (MAB-1); assay: TR-FRET competition; labeled anti-CRP MAB-1 with labeled CRP as tracer; unlabeled CRP calibrator at 20.4 mg/L
[7] = molecular target: anti-C-reactive protein antibody (MAB-1); assay: TR-FRET competition, acceptor emission; unlabeled CRP calibrator at 118.7 mg/L
[8] = molecular target: anti-C-reactive protein antibody (MAB-1); assay: TR-FRET competition, acceptor emission; unlabeled CRP calibrator at 20.4 mg/L
[9] = molecular target: anti-C-reactive protein antibody (MAB-1); assay: TR-FRET competition; labeled anti-CRP MAB-1 with labeled CRP as tracer; unlabeled CRP calibrator at 2.9 mg/L
[10] = molecular target: anti-C-reactive protein antibody (MAB-1); assay: TR-FRET competition, acceptor emission; unlabeled CRP calibrator at 60.5 mg/L

- FRETRatio [1]: 2320
- FRETRatio [2]: 3980
- Acceptor1RFU [3]: 162000 RFU
- Acceptor1RFU [4]: 210000 RFU
- FRETRatio [5]: 13100
- FRETRatio [6]: 8220
- Acceptor1RFU [7]: 29900 RFU
- Acceptor1RFU [8]: 103000 RFU
- FRETRatio [9]: 17100
- Acceptor1RFU [10]: 49700 RFU
B1: C-reactive protein (unlabeled analyte / calibrator) (protein)
chain: QTDMSRKAFVFPKESDTSYVSLKAPLTKPLKAFTVCLHFYTELSSTRGYSIFSYATKRQDNEILIFWSKDIGYSFTVGGSEILFEVPEVTVAPVHICTSWESASGIVEFWVDGKPRVRKSLKKGYTVGAEASIILGQEQDSFGGNFEGSQSLVGDIGNVNMWDFVLSPDEINTIYLGGPFSPNVLNWRALKYEVQGEVFTKPQLWP
